Target: αRXR co-transfected into HEK293 cells
Experiment: cell-based or functional assay

- induction of reporter activity in HEK293 cells co-transfected with αRXR, effector and reporter, compared to the untreated cells: 9 fold
- reporter activity with αRXR co-transfected, compared to cells transfected with effector and reporter alone: 4 fold
Substance: Heliothis virescens ecdysone receptor (HEcR) as expressed from effector plasmid pcDNA3H3KHEcR

— patent publication US20040058369A1
